Bounds are passed on as bounds.

The nature of this data set: soluble fraction after stress (log2 fold change); higher = more stays soluble; pooled small domains, quantitative proteomics. Particulars: stress: 50 degC. In a few lines: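 After stress at 50°C, the amount of each protein still soluble was measured. This was done on pooled custom libraries of small protein domains, using high-throughput quantitative proteomics. The figure given is a base-two log fold change and stands for aggregation propensity, with higher values meaning more protein stays in solution.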
With “HMFEERKKDWNLTGLLDDVIRRYIHQLTNDELNEINLEKSSGMPDEEIKNGIKLPLAVMQQRRETWGS”, the “soluble fraction (log2)” value is -0.16.

Consider “HMFEQRLRQAMKELRLKQVQVAGLTGKSRGAISQYLSGDRVPPDGVQREMAIALGLEADYFSR”, for which the “soluble fraction (log2)” value was -0.408.

With “HMFERFIFTDEVYIRLKKSGLPQTTLRPLLEIHGKSFDHNEINIILSGLIPNQDFERYAQIIKSHSRF”, the “soluble fraction (log2)” value is -3.82.

As to “HMFEYDEIMEQSVPKIAWGSLLTIMKKASSHKEMLWYINETYKNGWSRSMVLNQIAMASYERSLIE”, the “soluble fraction (log2)” value is -0.851.

Turning to “HMFFDKIIVDFLADGSRIDKYISTLYPDISRTHIQRLIAEQFILVNDSVVKSNYKLSTNDVVLIHIPEA”, the “soluble fraction (log2)” value is -3.33.

“HMFFMTMGEKIQLLRKKQNWSQETLAEKLSVSRQAVSLWERDESQPELDKLLKLAKIFSVTTDYLIDDSVT”: the “soluble fraction (log2)” value was -0.386.

On to “HMFGGIEFGWSQLPDGRVEYIIQLDDQAIAALKNGRSLTSSLPPEVQNADRIRIQYGAGPVEKGLLLQ”, for which the “soluble fraction (log2)” value is 0.0674.

“HMFIEMDEPEKILHRILNEANGKLELDKIGYRAEWPIGKVLTVLMSLELKGVVQSHPGKVYSL”: the “soluble fraction (log2)” value was -0.154.

Consider “HMFIGFLHQLKEAGVPVSIREYLDFLSGLDKGITNLNTNSFYHFARASLVKDERHYDRFDRTFSEFFEGAL”, for which the “soluble fraction (log2)” value was -3.

As for “HMFIQLSQEEKKVVEGLQQRSKTHLDALALEVGQNISKTAAMLMELEMKGVVRALPGKYYEL”, the “soluble fraction (log2)” value is -0.888.

For the sequence “HMFKEVPVPDVKGMTLEEAKLALEKEGFILGKTEEAESTEVAAGKIISQNLEAGKIAKQGTSVNLVVSKGK”, the “soluble fraction (log2)” value came to 0.24.

For “HMFKLPRTIGTFEDSDVVIGAGKFGPYIMHNKKFVSLPKSEDPLTIGLERAIELISAKREQEKQRH”, the “soluble fraction (log2)” value is 0.284.

For “HMFLPFFDNLRKAGVPVSLREFLGFLEGMKAGLATYDIDAFYFLARTTMVKDERNLDKFDRAFSATFKG”, the “soluble fraction (log2)” value is -0.563.

Regarding “HMFNDGEIAIYTDPRGDAGETQIWKRGKGYYGQNDSFDFEAKDKKELEMKLKRWGYVLIAGSIDE”, the “soluble fraction (log2)” value was -0.291.

Take “HMFNGDPTTRESILASARAEIDQYGIIGLRLSAVAEKAQVSVPLIYKYFEDRDGLLAVVLGDW”: the “soluble fraction (log2)” value is -1.27.

As for “HMFNTWLGEIRSNTGANVRSGPDASAAIVDARPNETVVRVIGQSGNWLQIGDKQFVAQSLVAP”, the “soluble fraction (log2)” value is -0.0505.

For the sequence “HMFPDLTGDELRIVDLLNTANDLQVNIITAKTNLPISRVTSLLFQLEMKGVVKPLAGGMYHLLG”, the “soluble fraction (log2)” value is -1.31.

Turning to “HMFPELDEEEQKITKLLQAQNDLPANIIAVKTALNIGTTQAKLFSLEMKGVVKPYAGGFYHLL”, the “soluble fraction (log2)” value is -0.25.

As to “HMFPNLTNEEQQVMKVLAKTNDLQINMLSVQSNLPIARLTALLFSMEMKGVVKTLAGGVYHLL”, the “soluble fraction (log2)” value is -3.23.

For the sequence “HMFPNSFSEREKEVVDLLLQAKSNKQIAFSLGITNRTVEYHLGNIFAKLGVSSRSEAILTITNYKNQ”, the “soluble fraction (log2)” value is -2.01.

Turning to “HMFPQVEVQLIYSYKSDRILNKMLKEFNVVILNQVFKDDILTSFHMNYSLVNQLITKIKSYPDISYKIIN”, the “soluble fraction (log2)” value is -1.5.

Take “HMFPTLNEDEQTIVSALQKINDQPINTLSIHTALPIPRLTSLLFQLEIKGVIKQLAGGTYHVL”: the “soluble fraction (log2)” value is -0.427.

Turning to “HMFQLSNEAKQQVLGELKRYESKQSAVLPALYIGQKDNKGHITPEVIRELSKVMDIPESQINEVFTFYTM”, the “soluble fraction (log2)” value is -0.119.

On to “HMFQRLPFSFANRYKMVLEYQHPERPPVLYYVEPLKAAAILEVSRVIKSGFTPQAIVSDEFEKKLTEAYQR”, for which the “soluble fraction (log2)” value is -1.1.

As for “HMFRMTPQRMAILAEVQNAERHLTAAEIYERVRRKYPTIAYGTVYRTLHLLAKHGLIQEFPFGDNASLFDR”, the “soluble fraction (log2)” value was 0.0678.

Consider “HMFRPRIEPGAKGSYVLEVQKRLAKLGYEHAGFDGVYGPGTERAIMQLQRDKGLPVTGIVDMRTYEALGLF”, for which the “soluble fraction (log2)” value was -0.46.

Turning to “HMFRSTLEELKHQISGFLKANQSQEFTAQNLADGLRMTSIAEYKRVVNAMDALVRDGELTFDAGKYQYNPN”, the “soluble fraction (log2)” value was -0.279.

As to “HMFSMKDFGQRLRQLRKERGLTQGDLARLAKIDIMQVSRYERGLGLPSLETAIALARVLETSTDLLFLG”, the “soluble fraction (log2)” value was -1.46.

Regarding “HMFSPSDEDLELAHRQIRAFEEVEANGKSIAVVDGRIVESLHIVTARDTLEKAKAITALAEEM”, the “soluble fraction (log2)” value stood at 0.115.

Regarding “HMFSVVDKITLQEELKKLSKKEQLLIQLRYYDELNQEEIAKIFHVSQVQISRMEKKIIEKLKKQF”, the “soluble fraction (log2)” value is -3.58.

In the case of “HMFTDEELEHIRSALIQAGIRLSKELGLQKMSVEKLTAAVGIAKGSFYMFFGSKEDFILEVAEYTGAQ”, the “soluble fraction (log2)” value was -0.582.

Consider “HMFTEEEMTKLRHELILAGIRLSRELGLQRMSVEKITSAVGIAKGSFYIFFDSKEDFILEIADHANRE”, for which the “soluble fraction (log2)” value is -1.06.

In the case of “HMFTEEQMDWLRLIKDHIVASLSILPEDLELTPFDRKGGLLGFYDAFGDEYEKILQEMNEELVA”, the “soluble fraction (log2)” value is -0.588.

Take “HMFTEIMAERNALIQAIQQNLPPQHIQSILSKKNKFRLEDLTNEELRDVWQWILNQRQAQQHQQQ”: the “soluble fraction (log2)” value was -0.171.

On to “HMFTGELESRVFELNYVDGLVASAALAGVLTDKGSATPIASRAGGENDMLLVVDRIASYSQIEKIITQLD”, for which the “soluble fraction (log2)” value was -0.0977.

Consider “HMFTKSNLEKLSNSELILKAIDSGNYSKIEFGGSEALNPDVPSYKKDLKNREELIEILSEMGM”, for which the “soluble fraction (log2)” value was -0.0323.

“HMFVNADEIAKGLSPFNPSSVAIEAGRLMLKRIGELLSAGVSFSVETTLSTRSYINLIQQAQNQGYSVSL”: the “soluble fraction (log2)” value is not below 0.62.

In the case of “HMFVVVPDLIGKTINQFEEDLSELNLKYVVSDSGNFNPEFKINAVLDQSPKANSKVKDGRKIYLTLNAS”, the “soluble fraction (log2)” value is -0.432.

Take “HMFWRKIDFYGLNLSTYRNIINIGSDYNYIYLDLGNIYKILNPITGKIIEEQDLVMNIDNINWSS”: the “soluble fraction (log2)” value was -0.0971.

Consider “HMFYNDLINFDVFRDSRKIGKIENINSRLPQPVFEIMYDSRIVLIPIHEDFIRKIDKVNNIIYLDIPDGLL”, for which the “soluble fraction (log2)” value is -1.72.

In the case of “HMGAAFITSSKDNAINIRQSANTDSKVIETVTNGQILESNEKSGEWHKVTYYDNDIKKSFTGYVHEGQLK”, the “soluble fraction (log2)” value turned out to be 0.125.

Take “HMGAAIEYGDRGNTVLQAQRLLIARGYMAGSADGIYGRQMEQAVKRFQKEQGLPESGVVDRRTLQVLIRSR”: the “soluble fraction (log2)” value was -0.626.

Regarding “HMGAARRFEMSEGGSQKFWEVAVEGPALTVRFGKLGTAGTTQTKTLASAEAAAKEADKLVREKTKKGYAP”, the “soluble fraction (log2)” value stood at 0.222.

Regarding “HMGAATQADIARVQELLNRLGYDAGSPDGLMGPRTRDAILEYQLTEGLETTGTVTRETLASLEARL”, the “soluble fraction (log2)” value was found to be 0.0823.

Regarding “HMGAGFREAIPPALDGERIDRVVSLLAYVSRNRAAGALAAGSVSVDGEVVFQRSRRVREGEELVVTGFERE”, the “soluble fraction (log2)” value was -0.97.

Regarding “HMGAITGLQSRVAFLKGQGTITDAEAKTAMAFLPDPTDSKEVKIAKIGQAREYIMSLIENRA”, the “soluble fraction (log2)” value was -0.106.

As to “HMGAIVTGTVVEIRSDVVIVNAGLKSEGVVPIEQFRNEAGELEVSVGDEVKVALDALEDGFGETRLS”, the “soluble fraction (log2)” value was -0.329.

With “HMGAIVTVPDLAGRPQPGAEAELRRSGLVPKVRTSYSLTGTRGTVISQTPPAGSRVREGAEVEVVVSRGLN”, the “soluble fraction (log2)” value is 0.0922.

For “HMGAKLTTAQGGTLKVLVKGKKTHTPTIELRDKDPDFPNAKVVQPDINKGNKQIAHGINGVL”, the “soluble fraction (log2)” value is 0.514.

For “HMGALAITPDFVGQTREEAERFLRDLDLSFDIGGKGDRILRQEPVAGQRMNLDQPMKLWVGSMNA”, the “soluble fraction (log2)” value stood at 0.0609.

On to “HMGANAVAAFTARVRTGPSTGYPVRISVPQGRQVRVISGPYGGWYRVSYQGLTGYTYGGLLRQG”, for which the “soluble fraction (log2)” value was -0.408.

As for “HMGAPAISYSKFLEQVDRKNVASVTIYKDGRIDGVMTSGSRFATESPSDPGLVGDLLKAGVEIRAKPP”, the “soluble fraction (log2)” value amounted to 0.126.

For “HMGAPVIYELTAESAAGQRIDKYLSGQLADLSRSYLQKLLKDGGVEVNKKPVKSNYKLSEGDQIRLEVPEA”, the “soluble fraction (log2)” value was 0.207.

For the sequence “HMGAQINSPISGTILKYLVKNGDKITKDQPLVNIESMKMENTIKSDKEGIVNNINFKIGDSVNTADTLLTL”, the “soluble fraction (log2)” value was found to be 0.0243.

For “HMGAQKITIPDFSNQEATQVYAELKNMGLEYTESRMNHPSIASGYVIKTEPTKGSEVKAGTTVTVYVSLG”, the “soluble fraction (log2)” value was -0.0535.

Regarding “HMGARHPLPYPFARAHGLLLEADGERSTLWASTNVSPAALSEVMRKYAVDVIEEEPPETLSQRIAAAYAA”, the “soluble fraction (log2)” value turned out to be 0.0215.

As for “HMGASFITSSKDNAINIRESATTDSKVIETIKNGEILESTEKSGDWHKVTYYNSEIKKSFTGYIHNSQLK”, the “soluble fraction (log2)” value was determined as 0.168.

As for “HMGASLVIVPGAGFLRVSASSQTRLDVYSITGMRVRSVDFEPGTTEIELPAGFYIAGGRKFFV”, the “soluble fraction (log2)” value was -1.4.

“HMGAYITYEVKPGDTLWDIANKFPGVSADNIKTWNKVDELIKAGERLKINTQTITDYSPDKYPS”: the “soluble fraction (log2)” value was -0.221.

For the sequence “HMGDADDLSRELLQQGLSLKEAVADFERRYLQQAMQRHSSIASVSEALDVHFSTLWRKLVKYNLV”, the “soluble fraction (log2)” value is -0.047.

Regarding “HMGDADDLTRIKGIGPKLSKTLNELGIYHFRQIAGWQSDEADWVDDYLSFKGRVMREQWIEQAQKFAS”, the “soluble fraction (log2)” value is -0.392.

For the sequence “HMGDAIPVPDVSGFSEDQAMNNLRKVGLRPKATYVADDNTAKGYVTGTSPAKNIEVAPDSEVIVYVSSGP”, the “soluble fraction (log2)” value came out at 0.238.

Take “HMGDAPLITVDKRTIKVNGAKAQIQVYDTTGRLVKNVSPAGKLTLIEMAKPGIFIVHTQSMSFKVVL”: the “soluble fraction (log2)” value was -0.448.

Consider “HMGDAVYSKVKDLVNTYNALAKQTGKSDLVSISQSRTWMVNDTKAHEVQWNKIGITIEDDQTLTI”, for which the “soluble fraction (log2)” value turned out to be 0.179.

In the case of “HMGDLDLVTFGQRLRHLRRSRNMTLSELGERVGRAPSQLSLLENGKREPKLSLLTALAKALDVSVEEL”, the “soluble fraction (log2)” value was -0.75.

As to “HMGDLVKGKVVGYDPDNVIVDIGAKTNALVPNREAVVEAGDDIKETLKKGNEYEFLIIRDEDEEGEFL”, the “soluble fraction (log2)” value was determined as 0.29.

On to “HMGDPEYFKKQLGDFMDRFNITSEDIKNLSIAGAINRMMNNAEGEDKTVLSKLLETVNKSGVGNLPAKTI”, for which the “soluble fraction (log2)” value came to 0.0622.

As to “HMGDPVRVDKFLHDMNVGTRSQIRKLIKEKAVFVNDVVAKSGRVKVDPVVDQVRLGEQVITYQ”, the “soluble fraction (log2)” value is -0.115.

For “HMGDPYAILGLLPGASMEDVRHAWRRQAAENHPDRMLQRGAPPEFVEIAREKTAAINAAYARIREELSI”, the “soluble fraction (log2)” value is -0.303.
